Experimental data: paper PMC4480132, “MAF1 represses CDKN1A through a Pol III-dependent mechanism”

Target: T1, MAF1 (His-tagged, Fitzgerald 80R-1955) (UniProt Q9H063 1-256)
T1 sequence: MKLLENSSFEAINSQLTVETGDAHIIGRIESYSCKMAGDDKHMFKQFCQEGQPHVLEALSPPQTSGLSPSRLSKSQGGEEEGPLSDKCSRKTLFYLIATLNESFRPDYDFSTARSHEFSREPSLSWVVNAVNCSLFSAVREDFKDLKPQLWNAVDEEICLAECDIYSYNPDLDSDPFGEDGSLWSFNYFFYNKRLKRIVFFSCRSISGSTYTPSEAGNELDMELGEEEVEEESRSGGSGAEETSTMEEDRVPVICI
Assay: colorimetric DNA-protein binding assay (ab117139); 40 ng biotin probe, 500 ng MAF1; IP-qPCR: 20 mM HEPES pH 7.6, 150 mM NaCl, 0.25 mM EDTA, 10% glycerol, 0.2% NP40, 1 mM DTT, 200 ng BSA, 50 ul, 20 ng DNA, 400 ng MAF1, 4 C/ice; colorimetric: Abcam ab117139 kit conditions
Settings: protein: commercial; tags: His6; label: 5' biotin (probe)

B1: p21 A-box probe (CDKN1A MIR3) (dsDNA)
DNA 1: AATCAACAACTTTGTATACTTAAGTTCAGTGGACCTCAATTTCCTCATCTGTGAAATAAA
DNA 2: TTTATTTCACAGATGAGGAAATTGAGGTCCACTGAACTTAAGTATACAAAGTTGTTGATT
B1: binds.
